Results taken from article PMC5268470.

Columns and labels:
[1] = [3H]-taurocholate uptake, Huh-7; details: glycan lost; control: NTCP-WT
[2] = cell surface biotinylation, immunoblot; details: glycan lost; control: NTCP-WT
[3] = anti-HA confocal immunofluorescence, HepG2; details: glycan lost; control: NTCP-WT
[4] = anti-HA IP-immunoblot, ImageJ quantification; details: glycan lost; control: NTCP-WT
[5] = Myrcludex B-FITC cell-surface fluorescence, plate reader; details: glycan lost; control: NTCP-WT
[6] = [3H]-taurocholate uptake, 2 min, HepG2; details: glycan lost; control: NTCP-WT
[7] = HBeAg ELISA, 3 days post infection, HepG2; details: glycan lost; control: NTCP-WT
[8] = intracellular cccDNA qPCR, 3 days post infection, HepG2; details: glycan lost; control: NTCP-WT
[9] = [3H]-taurocholate uptake, HepG2, untagged NTCP; details: glycan lost; control: untagged NTCP-WT

B1: Na+-taurocholate cotransporting polypeptide (NTCP): NTCP-N5,11Q (protein)
parent chain: MEAHNASAPFNFTLPPNFGKRPTDLALSVILVFMLFFIMLSLGCTMEFSKIKAHLWKPKGLAIALVAQYGIMPLTAFVLGKVFRLKNIEALAILVCGCSPGGNLSNVFSLAMKGDMNLSIVMTTCSTFCALGMMPLLLYIYSRGIYDGDLKDKVPYKGIVISLVLVLIPCTIGIVLKSKRPQYMRYVIKGGMIIILLCSVAVTVLSAINVGKSIMFAMTPLLIATSSLMPFIGFLLGYVLSALFCLNGRCRRTVSMETGCQNVQLCSTILNVAFPPEVIGPLFFFPLLYMIFQLGEGLLLIAIFWCYEKFKTPKDKTKMIYTAATTEETIPGALGNGTYKGEDCSPCTA
other: transport activity [1]: decreases
localisation_or_trafficking [2]: abolishes
localisation_or_trafficking [3]: changes
expression_or_secretion [4]: decreases
localisation_or_trafficking [5]: decreases

B2: Na+-taurocholate cotransporting polypeptide (NTCP): NTCP-N11Q (protein)
parent chain: MEAHNASAPFNFTLPPNFGKRPTDLALSVILVFMLFFIMLSLGCTMEFSKIKAHLWKPKGLAIALVAQYGIMPLTAFVLGKVFRLKNIEALAILVCGCSPGGNLSNVFSLAMKGDMNLSIVMTTCSTFCALGMMPLLLYIYSRGIYDGDLKDKVPYKGIVISLVLVLIPCTIGIVLKSKRPQYMRYVIKGGMIIILLCSVAVTVLSAINVGKSIMFAMTPLLIATSSLMPFIGFLLGYVLSALFCLNGRCRRTVSMETGCQNVQLCSTILNVAFPPEVIGPLFFFPLLYMIFQLGEGLLLIAIFWCYEKFKTPKDKTKMIYTAATTEETIPGALGNGTYKGEDCSPCTA
other: transport activity [6]: no change
localisation_or_trafficking [2]: no change
other: HBV receptor activity (infection) [7]: no change
localisation_or_trafficking [3]: no change
other: HBV receptor activity (infection) [8]: no change
localisation_or_trafficking [5]: decreases

B3: Na+-taurocholate cotransporting polypeptide (NTCP): untagged NTCP-N5,11Q (protein)
parent chain: MEAHNASAPFNFTLPPNFGKRPTDLALSVILVFMLFFIMLSLGCTMEFSKIKAHLWKPKGLAIALVAQYGIMPLTAFVLGKVFRLKNIEALAILVCGCSPGGNLSNVFSLAMKGDMNLSIVMTTCSTFCALGMMPLLLYIYSRGIYDGDLKDKVPYKGIVISLVLVLIPCTIGIVLKSKRPQYMRYVIKGGMIIILLCSVAVTVLSAINVGKSIMFAMTPLLIATSSLMPFIGFLLGYVLSALFCLNGRCRRTVSMETGCQNVQLCSTILNVAFPPEVIGPLFFFPLLYMIFQLGEGLLLIAIFWCYEKFKTPKDKTKMIYTAATTEETIPGALGNGTYKGEDCSPCTA
other: transport activity [9]: decreases

B4: Na+-taurocholate cotransporting polypeptide (NTCP): NTCP-N5Q (protein)
parent chain: MEAHNASAPFNFTLPPNFGKRPTDLALSVILVFMLFFIMLSLGCTMEFSKIKAHLWKPKGLAIALVAQYGIMPLTAFVLGKVFRLKNIEALAILVCGCSPGGNLSNVFSLAMKGDMNLSIVMTTCSTFCALGMMPLLLYIYSRGIYDGDLKDKVPYKGIVISLVLVLIPCTIGIVLKSKRPQYMRYVIKGGMIIILLCSVAVTVLSAINVGKSIMFAMTPLLIATSSLMPFIGFLLGYVLSALFCLNGRCRRTVSMETGCQNVQLCSTILNVAFPPEVIGPLFFFPLLYMIFQLGEGLLLIAIFWCYEKFKTPKDKTKMIYTAATTEETIPGALGNGTYKGEDCSPCTA
other: transport activity [6]: no change
localisation_or_trafficking [2]: no change
other: HBV receptor activity (infection) [7]: no change
localisation_or_trafficking [3]: no change
other: HBV receptor activity (infection) [8]: no change
localisation_or_trafficking [5]: decreases
